Results taken from patent US20100216715A1 (Novo Nordisk, published 2010).
Substitutions are numbered along the chain they refer to. Names and notes keep the numbering of the source.

B1: (K56R, K59R, K69R, D102E, N121Q, K122R, M168L) GSGSG-FGF21 (ligand)
chain: GSGSGHPIPDSSPLLQFGGQVRQRYLYTDDAQQTEAHLEIREDGTVGGAADQSPESLLQLRALRPGVIQILGVRTSRFLCQRPDGALYGSLHFDPEACSFRELLLEEGYNVYQSEAHGLPLHLPGQRSPHRDPAPRGPARFLPLPGLPPALPEPPGILAPQPPDVGSSDPLSLVGPSQGRSPSYAS
B2: (-5G, -4S, -3G, -2S, -1G, K56R, 59R, 69R, 102E, 121Q, 122R, 168L) FGF21 derivative of Example 55 (ligand)
chain: B1 chain
modifications: N-alpha-1-[4-(16-1H-tetrazol-5-yl-hexadecanoylsulfamoyl)-butyryl] on the N-terminal alpha amino group
B3: [-5G, -4S, -3G, -2S, -1G, K56R, 59R, 69R, 102E, 121Q, 122R, 168L] FGF21 derivative of Example 52 (ligand)
chain: B1 chain
modifications: N-alpha-1-[2-(2-{2-[2-(2-{2-[(S)-4-carboxy-4-(17-carboxy-heptadecanoylamino)-butyrylamino]-ethoxy}-ethoxy)-acetylamino]-ethoxy}-ethoxy)-acetyl] on the N-terminal alpha amino group
B4: (K56R, K59R, K69R, N121Q, K122R, L166F, S167G, M168L, 169aT, P171L, S172E, Q173A, G174V, Y179F, A180E, S181R) FGF21 (ligand)
chain: HPIPDSSPLLQFGGQVRQRYLYTDDAQQTEAHLEIREDGTVGGAADQSPESLLQLRALRPGVIQILGVRTSRFLCQRPDGALYGSLHFDPEACSFRELLLEDGYNVYQSEAHGLPLHLPGQRSPHRDPAPRGPARFLPLPGLPPALPEPPGILAPQPPDVGSSDPFGLVTGLEAVRSPSFER
B5: (K56R, K59R, K69R, K122R) FGF21 (ligand)
chain: HPIPDSSPLLQFGGQVRQRYLYTDDAQQTEAHLEIREDGTVGGAADQSPESLLQLRALRPGVIQILGVRTSRFLCQRPDGALYGSLHFDPEACSFRELLLEDGYNVYQSEAHGLPLHLPGNRSPHRDPAPRGPARFLPLPGLPPALPEPPGILAPQPPDVGSSDPLSMVGPSQGRSPSYAS
B6: Gly-FGF21 (ligand)
chain: GHPIPDSSPLLQFGGQVRQRYLYTDDAQQTEAHLEIREDGTVGGAADQSPESLLQLKALKPGVIQILGVKTSRFLCQRPDGALYGSLHFDPEACSFRELLLEDGYNVYQSEAHGLPLHLPGNKSPHRDPAPRGPARFLPLPGLPPALPEPPGILAPQPPDVGSSDPLSMVGPSQGRSPSYAS
B7: (Q15F, K56R, K59R, K69R, D102T, N121Q, K122R, Y179F, A180E, S181R) Gly-FGF21 (ligand)
chain: B6 chain with Q16F, K57R, K60R, K70R, D103T, N122Q, K123R, Y180F, A181E, S182R
B8: Gly-FGF21-M168L (ligand)
chain: B6 chain with M169L

Each binder was assayed against T1, human beta-Klotho (human, UniProt Q86Z14 1-1044) (assay: cell-based or functional assay).
T1 sequence (looked up): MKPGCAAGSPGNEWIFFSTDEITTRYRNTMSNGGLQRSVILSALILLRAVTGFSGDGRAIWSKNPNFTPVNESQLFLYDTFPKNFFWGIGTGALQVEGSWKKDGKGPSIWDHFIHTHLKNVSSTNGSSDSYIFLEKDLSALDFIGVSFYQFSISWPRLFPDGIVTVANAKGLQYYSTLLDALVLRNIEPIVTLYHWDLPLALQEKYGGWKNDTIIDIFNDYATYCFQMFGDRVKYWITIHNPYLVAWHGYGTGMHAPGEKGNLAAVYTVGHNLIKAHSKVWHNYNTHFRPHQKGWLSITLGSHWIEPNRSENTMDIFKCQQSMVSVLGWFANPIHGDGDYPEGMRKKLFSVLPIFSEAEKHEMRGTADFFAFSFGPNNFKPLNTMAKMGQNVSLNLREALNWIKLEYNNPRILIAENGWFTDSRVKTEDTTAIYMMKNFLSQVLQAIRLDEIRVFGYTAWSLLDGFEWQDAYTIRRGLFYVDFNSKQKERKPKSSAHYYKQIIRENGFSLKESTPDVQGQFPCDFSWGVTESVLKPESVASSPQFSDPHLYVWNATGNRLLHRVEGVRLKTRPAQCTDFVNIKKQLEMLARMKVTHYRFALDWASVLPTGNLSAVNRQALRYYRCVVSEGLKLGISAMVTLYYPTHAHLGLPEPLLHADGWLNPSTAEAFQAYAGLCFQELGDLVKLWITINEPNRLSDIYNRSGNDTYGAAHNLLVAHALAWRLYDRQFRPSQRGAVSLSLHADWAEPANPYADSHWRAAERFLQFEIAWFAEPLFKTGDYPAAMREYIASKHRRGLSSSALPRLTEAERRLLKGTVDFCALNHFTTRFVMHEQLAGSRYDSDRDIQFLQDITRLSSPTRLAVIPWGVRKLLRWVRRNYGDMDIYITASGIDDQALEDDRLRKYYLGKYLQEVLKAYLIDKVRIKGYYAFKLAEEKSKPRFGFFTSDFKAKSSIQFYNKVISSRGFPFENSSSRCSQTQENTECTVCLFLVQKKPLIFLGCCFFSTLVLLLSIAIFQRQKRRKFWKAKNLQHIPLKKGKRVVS
For B1, the “pERK-HEK293-Beta-klotho without HSA [EC50 (nM)] Median Value” (from here on “pERK-HEK293-Beta-klotho without HSA”) was 6.6 nM.
In the case of B2, the “pERK-HEK293-Beta-klotho without HSA” value is reported as 2 nM.
For B3, the “pERK-HEK293-Beta-klotho without HSA” value was 11 nM.
B4 was tested, and the “pERK-HEK293-Beta-klotho without HSA” value was 3 nM.
In the case of B5, the “pERK-HEK293-Beta-klotho without HSA” value is reported as 12 nM.
In the case of B6, the “pERK-HEK293-Beta-klotho without HSA” value is reported as 2.1 nM.
With B7 the “pERK-HEK293-Beta-klotho without HSA” value was 75 nM.
In the case of B8, the “pERK-HEK293-Beta-klotho without HSA” value is reported as 1.8 nM.
